Source: publication PMC12528421

Assays:
Assay in all cases: EMSA
Flag-AS160 = biological target: T1, Flag-AS160 (human, UniProt O60343 1-1298)
T1 sequence: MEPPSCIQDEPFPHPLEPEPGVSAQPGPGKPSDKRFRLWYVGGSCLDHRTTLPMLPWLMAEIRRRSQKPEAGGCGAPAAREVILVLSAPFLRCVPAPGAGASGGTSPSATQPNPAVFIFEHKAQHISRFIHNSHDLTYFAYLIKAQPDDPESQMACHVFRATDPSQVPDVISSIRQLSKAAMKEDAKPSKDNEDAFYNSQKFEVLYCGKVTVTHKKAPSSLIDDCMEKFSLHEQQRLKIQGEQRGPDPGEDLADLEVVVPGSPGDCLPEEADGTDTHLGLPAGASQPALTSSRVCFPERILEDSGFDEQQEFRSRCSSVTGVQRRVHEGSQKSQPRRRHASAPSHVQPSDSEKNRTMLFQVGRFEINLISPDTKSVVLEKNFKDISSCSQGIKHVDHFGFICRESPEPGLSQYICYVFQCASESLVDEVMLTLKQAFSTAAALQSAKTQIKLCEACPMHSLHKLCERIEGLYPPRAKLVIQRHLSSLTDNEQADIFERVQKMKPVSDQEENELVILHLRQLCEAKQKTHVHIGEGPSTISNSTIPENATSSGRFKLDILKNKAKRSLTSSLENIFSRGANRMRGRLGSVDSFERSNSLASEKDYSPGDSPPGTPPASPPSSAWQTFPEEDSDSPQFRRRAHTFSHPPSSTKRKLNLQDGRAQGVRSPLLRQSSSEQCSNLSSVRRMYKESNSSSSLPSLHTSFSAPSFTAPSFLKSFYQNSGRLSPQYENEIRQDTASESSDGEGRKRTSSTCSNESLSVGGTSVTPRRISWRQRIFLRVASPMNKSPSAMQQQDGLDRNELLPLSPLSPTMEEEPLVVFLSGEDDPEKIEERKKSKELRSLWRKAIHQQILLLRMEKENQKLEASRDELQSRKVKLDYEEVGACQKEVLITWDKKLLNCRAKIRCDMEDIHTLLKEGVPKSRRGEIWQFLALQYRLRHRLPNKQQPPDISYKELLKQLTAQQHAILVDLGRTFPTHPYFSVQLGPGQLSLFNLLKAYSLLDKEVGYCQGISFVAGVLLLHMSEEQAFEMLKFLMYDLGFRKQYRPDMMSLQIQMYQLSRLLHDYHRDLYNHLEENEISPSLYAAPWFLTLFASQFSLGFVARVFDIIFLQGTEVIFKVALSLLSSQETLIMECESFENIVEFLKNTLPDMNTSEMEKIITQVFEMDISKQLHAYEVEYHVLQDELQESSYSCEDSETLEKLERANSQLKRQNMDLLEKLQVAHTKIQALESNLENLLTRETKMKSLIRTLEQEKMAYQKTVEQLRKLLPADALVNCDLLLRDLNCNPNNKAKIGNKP

GST-STAT3;Flag-AS160 [1] = biological target: T2, GST-STAT3;Flag-AS160 (human;human, UniProt P40763;O60343 1-770;1-1298, |)
GST-STAT3 = GST-STAT3 (human, UniProt P40763 1-770)
GST-STAT3;Flag-AS160 [2] = biological target: T2, GST-STAT3;Flag-AS160; remark: listed apart in the source

T2 sequence (P40763 whole entry, one chain of several): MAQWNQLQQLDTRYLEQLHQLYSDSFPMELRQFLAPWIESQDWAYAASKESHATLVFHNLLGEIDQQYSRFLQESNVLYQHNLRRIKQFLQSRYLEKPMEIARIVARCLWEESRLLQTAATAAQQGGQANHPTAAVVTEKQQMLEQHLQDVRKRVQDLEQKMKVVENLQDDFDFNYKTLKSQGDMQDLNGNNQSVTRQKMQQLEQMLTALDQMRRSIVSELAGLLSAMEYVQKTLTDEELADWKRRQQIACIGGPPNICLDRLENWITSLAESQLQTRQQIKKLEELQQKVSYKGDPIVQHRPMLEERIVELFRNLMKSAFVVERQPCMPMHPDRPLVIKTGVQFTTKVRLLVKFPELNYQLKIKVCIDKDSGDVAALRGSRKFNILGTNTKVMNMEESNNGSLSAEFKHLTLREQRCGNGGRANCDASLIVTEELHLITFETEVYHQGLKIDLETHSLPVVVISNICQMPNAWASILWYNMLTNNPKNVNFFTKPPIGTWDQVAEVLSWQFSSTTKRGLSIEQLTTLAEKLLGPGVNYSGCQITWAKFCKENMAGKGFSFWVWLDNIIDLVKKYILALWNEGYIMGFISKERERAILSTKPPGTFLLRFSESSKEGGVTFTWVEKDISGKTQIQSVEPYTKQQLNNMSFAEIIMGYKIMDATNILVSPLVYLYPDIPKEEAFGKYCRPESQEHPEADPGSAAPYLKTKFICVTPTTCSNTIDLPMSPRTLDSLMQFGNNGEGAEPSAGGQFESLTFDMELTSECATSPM
GST-STAT3, sequence (P40763 whole entry): as the sequence (P40763 whole entry, one chain of several) above

B1: Classical STAT3 motif probe (dsDNA)
DNA 1: GATCCTTCTGGGAATTCCGATCCTTCTGGGAATTCCGATCCTTCTGGGAATTCC
DNA 2: GGAATTCCCAGAAGGATCGGAATTCCCAGAAGGATCGGAATTCCCAGA
In the case of B1, the binding result (Flag-AS160) is reported as “no binding”, the binding signal (GST-STAT3;Flag-AS160 [1]) is reported as greater than 2 fold vs STAT3 alone and the binding result (GST-STAT3) is reported as “binds”.

B2: Pax7 promoter bind site 2 probe (dsDNA)
DNA 1: ATCCCATCCCCGGAAGCCCTCCCATCCCCGGAAGCCCTCCCATCCCCGGAAGCCC
DNA 2: GGGCTTCCGGGGATGGGAGGGCTTCCGGGGATGGGAGGGCTTCCGGGGA
B2: no binding (Flag-AS160); binds (GST-STAT3;Flag-AS160 [2]); binds (GST-STAT3).

B3: Pax7 promoter bind site 3 probe (dsDNA)
DNA 1: AATTCTTCCGGGGATGTCAATTCTTCCGGGGATGTCAATTCTTCCGGGGATGTC
DNA 2: GACATCCCCGGAAGAATTGACATCCCCGGAAGAATTGACATCCCCGGA
B3: no binding (Flag-AS160); binds (GST-STAT3;Flag-AS160 [2]); binds (GST-STAT3).

B4: Myod1 promoter bind site 3 probe (dsDNA)
DNA 1: CAGATATTCTCTGAGCCATTCCCAGATGAGATATTCTCTGAGCCATTCCCAGATGG
DNA 2: CCATCTGGGAATGGCTCAGAGAATATCTCATCTGGGAATGGCTCAGAGAAT
B4: no binding (Flag-AS160); binds (GST-STAT3;Flag-AS160 [2]); binds (GST-STAT3).

B5: Myod1 promoter bind site 1 probe (dsDNA)
DNA 1: ATTGGATTCCTGGCATCCGTTGGATTCCTGGCATCCGTTGGATTCCTGGCATCCG
DNA 2: CGGATGCCAGGAATCCAACGGATGCCAGGAATCCAACGGATGCCAGGAA
B5: no binding (Flag-AS160); binds (GST-STAT3;Flag-AS160 [2]); binds (GST-STAT3).

B6: Pax7 promoter bind site 1 probe (dsDNA)
DNA 1: ATATGTTTACAGAAAGACATATGTTTACAGAAAGACATATGTTTACAGAAAGACA
DNA 2: TGTCTTTCTGTAAACATATGTCTTTCTGTAAACATATGTCTTTCTGTAA
B6: no binding (Flag-AS160); binds (GST-STAT3;Flag-AS160 [2]); binds (GST-STAT3).

B7: Myod1 promoter bind site 2 probe (dsDNA)
DNA 1: ACATTGTTCCTGGATATGACATTGTTCCTGGATATGACATTGTTCCTGGATATGA
DNA 2: TCATATCCAGGAACAATGTCATATCCAGGAACAATGTCATATCCAGGAA
B7: no binding (Flag-AS160); binds (GST-STAT3;Flag-AS160 [2]); binds (GST-STAT3).
